Results on four molecules are retold here after article PMC9482650, “Quantitative fragmentomics allow affinity mapping of interactomes” (Nature Communications, 2022).

Experiment in all cases: holdup assay
Holding throughout (set-up): key: below the threshold = too weak to quantify, mostly under pKd 3.1 to 4

In experiment [1] the target is T1, MPDZ_5, O75970.
T1 sequence (O75970 695-796, limits assumed, looked up): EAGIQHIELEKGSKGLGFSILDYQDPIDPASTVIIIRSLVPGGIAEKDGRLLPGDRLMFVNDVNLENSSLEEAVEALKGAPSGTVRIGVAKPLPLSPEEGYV

Experiment [2] concerns the target T2, SIPA1L2, Q9P2F8.
T2 sequence (Q9P2F8 945-1036, limits assumed, looked up): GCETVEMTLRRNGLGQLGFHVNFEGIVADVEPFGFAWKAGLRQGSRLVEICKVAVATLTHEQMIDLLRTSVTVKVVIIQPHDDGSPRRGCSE

In experiment [3] the target is DLG4_1, P78352.
Chain of DLG4_1, P78352 (P78352 62-152): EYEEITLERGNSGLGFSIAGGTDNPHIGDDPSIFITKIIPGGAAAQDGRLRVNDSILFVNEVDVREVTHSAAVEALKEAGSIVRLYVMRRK
The target in experiment [4] is T3, APBA2_2, Q99767.
T3 sequence (Q99767 654-744, limits assumed, looked up): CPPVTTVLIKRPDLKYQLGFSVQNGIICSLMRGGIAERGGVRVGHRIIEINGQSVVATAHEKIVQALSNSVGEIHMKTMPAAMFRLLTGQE

Experiment [5] has as its target T4, NHERF3_4, Q5T2W1.
T4 sequence (Q5T2W1 373-468, limits assumed, looked up): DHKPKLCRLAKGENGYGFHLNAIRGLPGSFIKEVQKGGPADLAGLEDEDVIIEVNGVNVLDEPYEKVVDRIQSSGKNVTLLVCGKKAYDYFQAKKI

The target in experiment [6] is Inadl_4, Q8NI35.
Chain of Inadl_4, Q8NI35 (Q8NI35 547-651): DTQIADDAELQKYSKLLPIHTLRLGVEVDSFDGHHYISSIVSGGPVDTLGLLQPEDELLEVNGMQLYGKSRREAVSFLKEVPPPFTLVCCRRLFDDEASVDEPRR
The target in experiment [7] is MAST2, Q6P0Q8.
Chain of MAST2, Q6P0Q8 (Q6P0Q8 1099-1202): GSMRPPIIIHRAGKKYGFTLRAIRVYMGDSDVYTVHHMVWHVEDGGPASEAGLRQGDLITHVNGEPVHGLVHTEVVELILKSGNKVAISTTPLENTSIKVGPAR
The target in experiment [8] is GRIP2_4, Q9C0E4.
Chain of GRIP2_4, Q9C0E4 (Q9C0E4 446-548): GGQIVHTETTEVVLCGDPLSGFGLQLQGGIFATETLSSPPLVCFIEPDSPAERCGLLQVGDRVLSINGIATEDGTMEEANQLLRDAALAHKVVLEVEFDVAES
The target in experiment [9] is T5, SNTB1, Q13884.
T5 sequence (Q13884 107-205, limits assumed, looked up): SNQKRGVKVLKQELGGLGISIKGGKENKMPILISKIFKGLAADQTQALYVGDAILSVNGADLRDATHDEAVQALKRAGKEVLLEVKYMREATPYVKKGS

The target in experiment [10] is T6, NHERF3_3, Q5T2W1.
T6 sequence (Q5T2W1 238-333, limits assumed, looked up): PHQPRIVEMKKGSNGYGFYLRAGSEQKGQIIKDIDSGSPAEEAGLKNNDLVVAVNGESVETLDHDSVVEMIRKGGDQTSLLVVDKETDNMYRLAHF

Experiment [11] addresses T7, MPP7, Q5T2T1.
T7 sequence (Q5T2T1 134-230, limits assumed, looked up): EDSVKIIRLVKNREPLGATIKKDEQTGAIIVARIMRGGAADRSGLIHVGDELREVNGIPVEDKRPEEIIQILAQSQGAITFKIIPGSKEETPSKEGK

In experiment [12] the target is T8, TX1BP3, O14907.
T8 sequence (O14907 10-122, limits assumed, looked up): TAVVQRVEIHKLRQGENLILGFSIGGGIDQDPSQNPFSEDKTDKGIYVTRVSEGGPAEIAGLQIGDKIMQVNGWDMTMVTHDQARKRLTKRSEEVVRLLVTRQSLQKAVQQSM

In experiment [13] the target is T9, MPP2, Q14168.
T9 sequence (Q14168 180-250, limits assumed, looked up): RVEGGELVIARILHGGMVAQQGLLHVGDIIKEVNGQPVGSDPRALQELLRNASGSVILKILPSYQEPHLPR

Experiment [14] has as its target CASK, O14936.
Experiment [15] addresses PTPN3, P26045.
Experiment [16] deals with T10, GRIP1_5, Q9Y3R0.
T10 sequence (Q9Y3R0 568-668, limits assumed, looked up): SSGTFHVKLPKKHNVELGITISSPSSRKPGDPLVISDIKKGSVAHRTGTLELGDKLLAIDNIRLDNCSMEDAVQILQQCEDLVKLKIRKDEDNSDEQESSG

Experiment [17] deals with MAGI2_6, Q86UL8.
Chain of MAGI2_6, Q86UL8 (Q86UL8 1141-1229): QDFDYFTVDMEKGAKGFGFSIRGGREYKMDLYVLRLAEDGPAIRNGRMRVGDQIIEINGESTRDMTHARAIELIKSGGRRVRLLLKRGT
Experiment [18] has as its target ARHGEF12, Q9NZN5-2.
In experiment [19] the target is T11, PDZD7_3, Q9H5P4.
T11 sequence (Q9H5P4 857-944, limits assumed, looked up): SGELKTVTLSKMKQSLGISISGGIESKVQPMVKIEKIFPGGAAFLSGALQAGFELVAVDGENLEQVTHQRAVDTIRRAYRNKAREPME

Experiment [20] concerns the target FRMPD2_2, Q68DX3.
Experiment [21] has as its target T12, ARHGAP21, Q5T5U3.
T12 sequence (Q5T5U3 45-169, limits assumed, looked up): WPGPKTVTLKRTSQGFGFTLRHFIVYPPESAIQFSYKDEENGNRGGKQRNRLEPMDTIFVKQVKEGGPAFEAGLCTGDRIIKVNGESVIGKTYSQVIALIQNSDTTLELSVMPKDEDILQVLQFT

The target in experiment [22] is PDLIM1, O00151.
Chain of PDLIM1, O00151 (O00151 1-87): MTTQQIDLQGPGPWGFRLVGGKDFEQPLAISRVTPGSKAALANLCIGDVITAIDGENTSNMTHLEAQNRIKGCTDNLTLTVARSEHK
Experiment [23] has as its target T13, APBA1_2, Q02410.
T13 sequence (Q02410 742-832, limits assumed, looked up): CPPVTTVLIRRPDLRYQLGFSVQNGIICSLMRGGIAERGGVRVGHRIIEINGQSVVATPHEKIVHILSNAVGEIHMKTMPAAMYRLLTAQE

The target in experiment [24] is T14, LIN7B, Q9HAP6.
T14 sequence (Q9HAP6 88-185, limits assumed, looked up): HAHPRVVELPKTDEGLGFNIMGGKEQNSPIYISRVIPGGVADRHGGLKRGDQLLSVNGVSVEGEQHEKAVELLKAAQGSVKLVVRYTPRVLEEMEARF

Setting [25] is: plain residues with an end cap or a label only (N-terminal biotin on a linker: ado-ado).
[26] abbreviates: plain residues with an end cap or a label only (N-terminal biotin on a linker: ahx).

Chain of PTPN3, P26045 (P26045 505-587): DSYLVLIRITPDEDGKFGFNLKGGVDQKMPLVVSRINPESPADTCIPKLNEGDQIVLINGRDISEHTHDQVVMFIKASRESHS
Chain of ARHGEF12, Q9NZN5-2 (Q9NZN5 other isoform, or with tags, fused parts or gaps): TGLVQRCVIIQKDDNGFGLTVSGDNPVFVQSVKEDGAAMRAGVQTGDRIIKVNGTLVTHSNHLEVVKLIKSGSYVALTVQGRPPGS
Chain of FRMPD2_2, Q68DX3 (Q68DX3 944-1038): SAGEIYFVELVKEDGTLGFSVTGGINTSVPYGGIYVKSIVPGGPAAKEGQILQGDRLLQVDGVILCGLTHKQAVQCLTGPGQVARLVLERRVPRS
Chain of CASK, O14936 (O14936 487-570): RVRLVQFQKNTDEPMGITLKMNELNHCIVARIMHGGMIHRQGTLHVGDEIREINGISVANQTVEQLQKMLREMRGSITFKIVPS

For EIPAQSPTCV [FZD10, Q9ULW2], the pKd result in experiment [1] (setting [25]) was “below the threshold”; in experiment [2] (setting [25]), 3.69; in experiment [3] (setting [25]), 4.01; in experiment [4] (setting [25]), 3.63; in experiment [5] (setting [25]), “below the threshold”; in experiment [6] (setting [25]), 3.64. The pKd is 4.01 in experiment [7] (setting [25]); “below the threshold” in [8] (setting [25]); 3.75 in experiment [9] (setting [25]); 3.57 in experiment [10] (setting [25]); “below the threshold” in experiment [11] (setting [25]); “below the threshold” in experiment [12] (setting [25]). Besides, the pKd entry was “below the threshold” in experiment [13] (setting [25]); 3.59 in [14] (setting [25]); 3.77 in [15] (setting [25]); “below the threshold” in experiment [16] (setting [25]); 3.85 in experiment [17] (setting [25]); 3.91 in [18] (setting [25]). The pKd in experiment [19] (setting [25]) was 4.3; in experiment [20] (setting [25]) it was 3.74; in experiment [21] (setting [25]) it was 4.12; in experiment [22] (setting [25]) it was 3.68; in experiment [23] (setting [25]) it was 4.77; in experiment [24] (setting [25]) it was “below the threshold”.

Regarding DPAESMESLV [PTPRG, P23470], the pKd result in experiment [1] (setting [25]) was “below the threshold”; in experiment [2] (setting [25]), “below the threshold”; in experiment [3] (setting [25]) it was 4.59; in experiment [4] (setting [25]), “below the threshold”; in experiment [5] (setting [25]), “below the threshold”; in experiment [6] (setting [25]), “below the threshold”. Also, the pKd in [7] (setting [25]) is 4.69; in [8] (setting [25]), “below the threshold”; in experiment [9] (setting [25]), 4.84; in [10] (setting [25]), “below the threshold”; in experiment [11] (setting [25]), “below the threshold”; in experiment [12] (setting [25]), 4.03. For the same molecule, the pKd entry in experiment [13] (setting [25]) is “below the threshold”; in experiment [14] (setting [25]) it was “below the threshold”; in experiment [15] (setting [25]), 4.61; in experiment [16] (setting [25]), “below the threshold”; in experiment [17] (setting [25]) it was 4.16; in [18] (setting [25]), “below the threshold”. Further, the pKd in experiment [19] (setting [25]) was 4.54; in experiment [20] (setting [25]), 4.54; in experiment [21] (setting [25]), “below the threshold”; in [22] (setting [25]), “below the threshold”; in experiment [23] (setting [25]), “below the threshold”; in experiment [24] (setting [25]), “below the threshold”.

For QPRTWLQSPV [RTKN, Q9BST9], the pKd result is “below the threshold” in experiment [1] (setting [26]); “below the threshold” in experiment [2] (setting [26]); 4.19 in experiment [3] (setting [26]); “below the threshold” in [4] (setting [26]); “below the threshold” in [5] (setting [26]); “below the threshold” in [6] (setting [26]). For the same molecule, the pKd is 4.13 in experiment [7] (setting [26]); “below the threshold” in [8] (setting [26]); “below the threshold” in experiment [9] (setting [26]); “below the threshold” in experiment [10] (setting [26]); “below the threshold” in experiment [11] (setting [26]); 6.05 in experiment [12] (setting [26]). For the same molecule, the pKd result in experiment [13] (setting [26]) was “below the threshold”; in experiment [14] (setting [26]), “below the threshold”; in experiment [15] (setting [26]), 3.78; in [16] (setting [26]), “below the threshold”; in [17] (setting [26]) it was “below the threshold”; in [18] (setting [26]), 3.99. For the same molecule, the pKd result in experiment [19] (setting [26]), in [20] (setting [26]), in [21] (setting [26]), in experiment [22] (setting [26]), in experiment [23] (setting [26]) and in [24] (setting [26]) was “below the threshold” in each case.

For DFLSTFHIRI [CIB2, O75838], the pKd entry in experiment [1] (setting [25]) was “below the threshold”; in experiment [2] (setting [25]), “below the threshold”; in experiment [3] (setting [25]) it was “below the threshold”; in experiment [4] (setting [25]) it was “below the threshold”; in [5] (setting [25]) it was 3.66; in [6] (setting [25]) it was “below the threshold”. In addition, the pKd was 4.68 in experiment [7] (setting [25]); “below the threshold” in experiment [8] (setting [25]); “below the threshold” in experiment [9] (setting [25]); “below the threshold” in experiment [10] (setting [25]); 4.46 in experiment [11] (setting [25]); “below the threshold” in experiment [12] (setting [25]). The pKd entry in experiment [13] (setting [25]), in experiment [14] (setting [25]), in experiment [15] (setting [25]), in experiment [16] (setting [25]), in [17] (setting [25]) and in experiment [18] (setting [25]) was “below the threshold” throughout. The pKd result was “below the threshold” in experiment [19] (setting [25]); “below the threshold” in experiment [20] (setting [25]); 4.13 in [21] (setting [25]); “below the threshold” in experiment [22] (setting [25]); “below the threshold” in [23] (setting [25]); 3.67 in [24] (setting [25]).
